± gives the standard error. Fewer inactive variants are shown than the library holds.
B1: glmS ribozyme (parent)
chain: AUAAAAGCGCCAGAACUACAGAAAUGUAGUUGACGAGGAGGAGGUUUAUCGAAUUUUCGGCGGAUGCCUCCAAA

How the values were obtained:
Settings in all cases: with glucosamine-6-phosphate
glucosamine-6-phosphate [1] = variants of: B1; experiment: self-cleavage kobs at 640 uM GlcN6P; higher = faster cleavage; RNA array
In short: (§1)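 Tiles of sequenced MiSeq chips were imaged over ~14 h at 37 °C. On them, barcoded ribozyme variants had been transcribed in situ by E. coli RNA polymerase and were tracked via a hybridised Cy3 probe while glucosamine-6-phosphate (40 μM to 10 mM) in HEPES/KCl/Mg(OAc)2 buffer flowed in. Per-tile medians, normalised to baseline and to non-cleaving reference variants, were fit to one- or two-exponential decays for kobs, and weighted Michaelis–Menten fits gave kcat and KM.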

glucosamine-6-phosphate [2] = variants of: B1; experiment: self-cleavage kobs at 2500 uM GlcN6P; higher = faster cleavage; RNA array
In short: as §1

glucosamine-6-phosphate [3] = variants of: B1; experiment: self-cleavage kobs at 10000 uM GlcN6P; higher = faster cleavage; RNA array
In short: as §1

Variant	self-cleavage kobs at 640 uM GlcN6P (glucosamine-6-phosphate [1])	self-cleavage kobs at 2500 uM GlcN6P (glucosamine-6-phosphate [2])	self-cleavage kobs at 10000 uM GlcN6P (glucosamine-6-phosphate [3])
A14U A64U U65A C67G C71G	7.6e-05 ± 2.4e-05 s⁻¹	4.74e-05 ± 2.1e-05 s⁻¹	–
A15U A39C A42U	< 1e-05 s⁻¹	–	–
A15G G37U C58A C70A	6.04e-05 ± 1.8e-05 s⁻¹	–	–
G32A U54C C67U	0.000136 ± 3.3e-05 s⁻¹	0.000349 ± 9.2e-05 s⁻¹	–
A15U G38U G63U	< 1e-05 s⁻¹	–	–
A14U U47C C58G C68G	5.55e-05 ± 1.6e-05 s⁻¹	0.000171 ± 4e-05 s⁻¹	–
G32C A48U A64C	< 1e-05 s⁻¹	–	–
C16U C34U G66U C68G	0.000354 ± 0.0001 s⁻¹	–	–
U30C G51A U65G	< 1e-05 s⁻¹	< 1e-05 s⁻¹	–
U31A A33G U49C C58G	< 1e-05 s⁻¹	–	–
U30C G44U	< 1e-05 s⁻¹	< 1e-05 s⁻¹	< 1e-05 s⁻¹
G29U A33C G41A U49C G60A U65C	< 1e-05 s⁻¹	–	–
A14U A33G G38A	< 1e-05 s⁻¹	< 1e-05 s⁻¹	–
A14U A36G U47A	< 1e-05 s⁻¹	< 1e-05 s⁻¹	–
C16U U46C C50U	< 1e-05 s⁻¹	–	–
A15G C16U C67U	0.000521 ± 0.00014 s⁻¹	–	–
G29C U56A C67G	4.47e-05 ± 2.1e-05 s⁻¹	7.09e-05 ± 2e-05 s⁻¹	–
A15C G44C U56C	< 1e-05 s⁻¹	–	–
C16U G43C C71A	< 1e-05 s⁻¹	< 1e-05 s⁻¹	–
G29C U45A C67A	0.000165 ± 4.8e-05 s⁻¹	–	–
C16A G59U G60A	< 1e-05 s⁻¹	–	–
A15G A53C C68U	4.28e-05 ± 2e-05 s⁻¹	0.000114 ± 3.9e-05 s⁻¹	–
G21U U30A	0.00112 ± 0.00029 s⁻¹	0.000247 ± 0.00012 s⁻¹	0.00354 ± 0.00075 s⁻¹
A14U A33C U57C	0.0103 ± 0.004 s⁻¹	–	–

Variant	self-cleavage kobs at 640 uM GlcN6P (glucosamine-6-phosphate [1])	self-cleavage kobs at 2500 uM GlcN6P (glucosamine-6-phosphate [2])	self-cleavage kobs at 10000 uM GlcN6P (glucosamine-6-phosphate [3])
U31C A52C C71A	< 1e-05 s⁻¹	–	–
G32A C50U C70G	0.000126 ± 4.6e-05 s⁻¹	–	–
U31A A42U U57A A64G C71A	< 1e-05 s⁻¹	–	–
C16U G43A C67G	0.000254 ± 6.6e-05 s⁻¹	–	0.000419 ± 0.0001 s⁻¹
U30A G40U U45A	4.42e-05 ± 2.1e-05 s⁻¹	0.000226 ± 5.7e-05 s⁻¹	–
U30C A36C A39U G43A G44U	< 1e-05 s⁻¹	–	–
G32A G66U C68G	0.000111 ± 3.9e-05 s⁻¹	–	–
U31A G32C C61U	< 1e-05 s⁻¹	–	–
U30G U45A G59C	< 1e-05 s⁻¹	< 1e-05 s⁻¹	–
U31C G37A G44U A48U C50A U65G	< 1e-05 s⁻¹	–	–
C16G A36C G51A G59C C61G	< 1e-05 s⁻¹	< 1e-05 s⁻¹	–
G32A U49G C58G G63U U69G	0.000279 ± 9.2e-05 s⁻¹	0.000153 ± 3.7e-05 s⁻¹	–
A15G C16G C50G U54C	0.00183 ± 0.00059 s⁻¹	–	–
G21U U69G	6.25e-05 ± 1.4e-05 s⁻¹	9.89e-05 ± 2e-05 s⁻¹	–
A15U U45A A53C	0.000941 ± 0.00022 s⁻¹	–	–
U31A U47C U54G	0.000284 ± 6e-05 s⁻¹	0.00068 ± 0.00013 s⁻¹	–
A15C G29C G35A C50A	< 1e-05 s⁻¹	< 1e-05 s⁻¹	–
A14U A15G C16A A52U A53U	< 1e-05 s⁻¹	–	–
C16A G62U C71G	< 1e-05 s⁻¹	< 1e-05 s⁻¹	–
C16U U46C A53U	0.000328 ± 7.3e-05 s⁻¹	0.00078 ± 0.00025 s⁻¹	–
A14U U65A C70U	0.000274 ± 4.7e-05 s⁻¹	0.000248 ± 9.4e-05 s⁻¹	0.000945 ± 0.0002 s⁻¹
C16A A36G U65G C71U	< 1e-05 s⁻¹	–	–
G32A G44U A53C	< 1e-05 s⁻¹	< 1e-05 s⁻¹	–
G29U C58A C68A	0.000121 ± 3.2e-05 s⁻¹	3.43e-05 ± 1.5e-05 s⁻¹	–

Variant	self-cleavage kobs at 640 uM GlcN6P (glucosamine-6-phosphate [1])	self-cleavage kobs at 2500 uM GlcN6P (glucosamine-6-phosphate [2])	self-cleavage kobs at 10000 uM GlcN6P (glucosamine-6-phosphate [3])
C16U G38C	< 1e-05 s⁻¹	–	–
G32C U45G G60A C68G	< 1e-05 s⁻¹	< 1e-05 s⁻¹	–
U31C G35C C50U	< 1e-05 s⁻¹	< 1e-05 s⁻¹	–
A15U U31C U55G G63U	< 1e-05 s⁻¹	–	–
G29U A42G G62C	< 1e-05 s⁻¹	–	–
G29U C34U G40U A42C U55A G66U	< 1e-05 s⁻¹	< 1e-05 s⁻¹	–
G29C A42G G43U G51C G62C	< 1e-05 s⁻¹	–	–
G32U A33U U56G	< 1e-05 s⁻¹	–	–
G32C G35U A36C C68A	< 1e-05 s⁻¹	< 1e-05 s⁻¹	–
A15U C50G C71G	0.000108 ± 2.6e-05 s⁻¹	0.000148 ± 5.1e-05 s⁻¹	–
C16A G66U C68A	0.0001 ± 3.2e-05 s⁻¹	–	–
C16A G66U C68G	6.61e-05 ± 2.5e-05 s⁻¹	6.82e-05 ± 2.8e-05 s⁻¹	–
U30A G40U G60C C61A	< 1e-05 s⁻¹	< 1e-05 s⁻¹	–
C19A G44U	2.94e-05 ± 1.3e-05 s⁻¹	0.000114 ± 2.7e-05 s⁻¹	–
U30A A33C G40A C71U	< 1e-05 s⁻¹	–	–
A15G G35A G44U C50G G59C G60C	< 1e-05 s⁻¹	–	–
C16A G41U	< 1e-05 s⁻¹	–	–
A14U C16A G29A	8.7e-05 ± 2.4e-05 s⁻¹	–	–
G29U G66C	4.59e-05 ± 1.9e-05 s⁻¹	9.16e-05 ± 2.9e-05 s⁻¹	–
G29U A33C C50U U57A C61U	< 1e-05 s⁻¹	–	–
G32A G35U G38C A39C U49G	< 1e-05 s⁻¹	< 1e-05 s⁻¹	–
A15C G38U C58A	< 1e-05 s⁻¹	–	–

— the supplement of paper PMC7125110
